The results in this text go back to paper PMC5567992.

The target of assay [1] is CNTNW^N149L (Neisseria wadsworthii). In words: crystal structure.
In assay [2] the target is CNTNW^N149L, SeMet labelled (Neisseria wadsworthii). Description: crystal structure.
The target of assay [3] is CNTNW^N149S,E332A (Neisseria wadsworthii). In words: crystal structure.
Assay [4] addresses CNTNW^N149S,F366A (Neisseria wadsworthii). Description: crystal structure.
Assay [5] deals with MBP-CNTNW^T243C,C364S,A373C (inward-facing cross-linking mutant) (Neisseria wadsworthii). In words: cross-linking.
Assay [6] addresses MBP-CNTNW^T243C,C364S,K388C (outward-facing cross-linking mutant) (Neisseria wadsworthii). Description: cross-linking.
Assay [7] deals with concentrative nucleoside transporter from Neisseria wadsworthii (CNTNW), wild type (Neisseria wadsworthii). Description: crystal structure.

One may read the stoichiometry N as a count of units in the complex or per binding partner. In turn, CNTNW^N149L (natural protein) gave a stoichiometry N in assay [1] of 3.
As to “CNTNW^N149L, SeMet labelled (natural protein)”, the stoichiometry N in assay [2] stood at 3.
Substance CNTNW^N149S,E332A (natural protein) came in with a stoichiometry N in assay [3] of 3.
In the case of CNTNW^N149S,F366A (natural protein), the stoichiometry N in assay [4] was 3.
The substance “MBP-CNTNW^T243C,C364S,A373C (inward-facing cross-linking mutant) (natural protein)” displayed a stoichiometry N in assay [5] of 3.
“MBP-CNTNW^T243C,C364S,K388C (outward-facing cross-linking mutant) (natural protein)” gave a stoichiometry N in assay [6] of 3.
The substance “concentrative nucleoside transporter from Neisseria wadsworthii (CNTNW), wild type (natural protein)” returned a stoichiometry N in assay [7] of 3.
